# B1: hu28 VH1.0/VL1.0: humanized r28 variant VH1.0/VL1.0, anti-Notch3 antibody (VH SEQ ID NO: 13, VL SEQ ID NO: 25) (antibody, V domains shown)
# VH: EVQLVESGGGLVQPGGSLRLSCAASGFTFRDYGMTWVRQAPGKGLEWVAYISSGSNYIYYAEAVKGRFTISRDNAKNSLYLQMNSLRAEDTAVYYCARRGPFVLDAWGQGTLVTVSS
# VL: DIQMTQSPSSLSASVGDRVTITCKASQSINRYLHWYQQKPGKAPKLLIYNANGLQTGVPSRFSGSGSGTDFTLTISSLQPEDFATYYCLQHNTWPDTFGGGTKVEIK
# Experiments:
# [1] = system: Site 2 (S2)-cleavage of the Notch3 receptor in HCC2429 and MDA-MB-468 cells; assay: S2-cleavage assay (western blot, D11B8); type: cell-based, human; conditions: 5 μg/ml, 24 hours; FIG. 9
# Description: To confirm that binding of anti-Notch3 antibody hu75, but not hu28, to the NRR domain of Notch3 is accompanied by a decrease in S2-cleavage, western blot analysis was performed. The rabbit monoclonal anti-Notch3 antibody D11B8 (Cell Signaling Technologies) recognizes the Notch3 C-terminal fragments that are products of S1 and S2 proteolytic cleavage events. […] The anti-Notch3 antibody hu28 bound to LNR-C and HD1 domains that are located on a linear, covalently linked region of the NRR domain that is N-terminal to the S1-site. An inhibitory antibody is expected to decrease the detection of S2-cleaved Notch3 by stabilizing the NRR domain in an auto-inhibitory conformation thus preventing S2-cleavage, while a non-inhibitory antibody is not expected to have an effect on S2-cleavage.
# Site 2 (S2)-cleavage of the Notch3 receptor was assessed by western blot analysis of the protein using the D11B8 (Cell Signaling Technologies) antibody which recognizes an epitope surrounding Glu2312 in the C-terminal domain. HCC2429 and MDA-MB-468 breast cancer cells were used to examine the effects of inhibitory anti-Notch3 antibody hu75 and non-inhibitory anti-Notch3 antibody hu28 on S2-cleavage. For the assay, 1-2.5×10^6 cells were plated in complete growth medium. […] Notch3 was detected with D11B8 antibody and, as a loading control, anti-GAPDH (Sigma) using standard western blot procedures.
# OVCAR3 = target: T1, OVCAR3 (Homo sapiens, UniProt Q9UM47); assay: Flow cytometry (FACS) binding, OVCAR3; conditions: 4 μg/mL antibody
# T1 construct: Notch3 endogenously expressing cells MDA-MB-468, HCC2429 and OVCAR3; endogenous in cells; host or cells: OVCAR3
# T1 sequence (Q9UM47 40-2321): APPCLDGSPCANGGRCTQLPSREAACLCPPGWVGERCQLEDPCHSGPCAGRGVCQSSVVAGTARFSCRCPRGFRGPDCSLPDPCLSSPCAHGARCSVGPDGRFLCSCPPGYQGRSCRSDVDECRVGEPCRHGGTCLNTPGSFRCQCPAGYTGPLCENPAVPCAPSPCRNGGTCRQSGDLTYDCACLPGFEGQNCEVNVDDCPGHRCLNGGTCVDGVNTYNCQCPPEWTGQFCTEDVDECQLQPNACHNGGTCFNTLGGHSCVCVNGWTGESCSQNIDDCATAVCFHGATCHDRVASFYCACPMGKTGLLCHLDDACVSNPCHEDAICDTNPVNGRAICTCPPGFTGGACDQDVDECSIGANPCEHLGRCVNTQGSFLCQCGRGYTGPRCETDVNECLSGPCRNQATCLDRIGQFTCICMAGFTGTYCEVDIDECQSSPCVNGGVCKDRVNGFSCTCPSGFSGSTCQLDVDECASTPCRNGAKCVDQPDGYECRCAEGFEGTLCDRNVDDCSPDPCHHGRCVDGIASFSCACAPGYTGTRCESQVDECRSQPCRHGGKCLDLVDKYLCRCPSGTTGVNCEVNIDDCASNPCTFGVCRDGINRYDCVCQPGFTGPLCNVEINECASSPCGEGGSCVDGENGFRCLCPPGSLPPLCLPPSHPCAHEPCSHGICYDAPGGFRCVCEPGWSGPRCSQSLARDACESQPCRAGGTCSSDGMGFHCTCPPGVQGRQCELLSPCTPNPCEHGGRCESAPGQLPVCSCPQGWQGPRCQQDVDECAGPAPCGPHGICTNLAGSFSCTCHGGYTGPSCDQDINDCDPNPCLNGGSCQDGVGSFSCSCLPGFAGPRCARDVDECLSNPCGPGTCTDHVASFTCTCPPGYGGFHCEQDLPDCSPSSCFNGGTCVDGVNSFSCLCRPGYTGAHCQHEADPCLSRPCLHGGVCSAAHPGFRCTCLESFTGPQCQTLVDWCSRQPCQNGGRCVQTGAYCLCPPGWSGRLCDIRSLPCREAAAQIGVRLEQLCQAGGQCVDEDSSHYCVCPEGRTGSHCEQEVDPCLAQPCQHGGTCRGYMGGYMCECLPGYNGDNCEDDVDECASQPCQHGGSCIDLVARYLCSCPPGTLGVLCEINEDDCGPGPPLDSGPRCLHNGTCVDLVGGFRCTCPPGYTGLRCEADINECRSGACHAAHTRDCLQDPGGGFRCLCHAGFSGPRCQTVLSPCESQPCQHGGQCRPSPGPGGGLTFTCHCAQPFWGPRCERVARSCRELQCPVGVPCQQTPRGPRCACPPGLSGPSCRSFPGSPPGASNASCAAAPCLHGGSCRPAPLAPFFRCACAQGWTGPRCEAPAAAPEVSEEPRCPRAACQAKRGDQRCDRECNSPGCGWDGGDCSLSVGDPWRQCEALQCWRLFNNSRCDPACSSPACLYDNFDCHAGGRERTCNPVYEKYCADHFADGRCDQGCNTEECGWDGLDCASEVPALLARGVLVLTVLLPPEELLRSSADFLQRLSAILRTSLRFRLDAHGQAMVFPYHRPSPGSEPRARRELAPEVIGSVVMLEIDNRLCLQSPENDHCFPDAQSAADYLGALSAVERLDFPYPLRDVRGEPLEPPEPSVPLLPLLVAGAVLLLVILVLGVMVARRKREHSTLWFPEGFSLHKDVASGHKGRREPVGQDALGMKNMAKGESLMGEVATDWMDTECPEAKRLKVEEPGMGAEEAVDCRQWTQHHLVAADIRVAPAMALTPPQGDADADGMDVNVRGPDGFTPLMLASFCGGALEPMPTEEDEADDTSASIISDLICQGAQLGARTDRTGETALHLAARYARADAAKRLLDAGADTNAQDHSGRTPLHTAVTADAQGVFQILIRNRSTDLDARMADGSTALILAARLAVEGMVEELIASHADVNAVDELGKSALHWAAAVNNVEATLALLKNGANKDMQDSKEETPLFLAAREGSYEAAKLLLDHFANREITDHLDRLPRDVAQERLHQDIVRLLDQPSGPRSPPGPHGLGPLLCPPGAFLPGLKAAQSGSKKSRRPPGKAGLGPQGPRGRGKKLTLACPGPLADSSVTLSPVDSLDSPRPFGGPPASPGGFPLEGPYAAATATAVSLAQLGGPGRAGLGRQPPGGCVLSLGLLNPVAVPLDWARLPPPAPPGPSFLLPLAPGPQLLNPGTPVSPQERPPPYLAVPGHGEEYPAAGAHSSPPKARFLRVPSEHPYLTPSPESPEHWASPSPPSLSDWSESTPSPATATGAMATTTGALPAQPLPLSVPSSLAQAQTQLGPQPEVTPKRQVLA
# Description: Unconjugated anti-Notch3 antibodies, hu28 and hu75, were examined for cell surface binding activity to Notch3 expressing cell lines by flow cytometry. Fluorescence activated cell sorting (FACS) analysis was conducted according to standard procedures. Cells were rinsed in HBSS with calcium chloride and magnesium chloride (herein termed HBSS++), harvested using trypsin without EDTA and neutralized with medium containing FBS. Cells were incubated on ice for 30 minutes with 4 μg/mL anti-Notch3 antibodies, hu28 and hu75, in HBSS++containing 3% HICS (heat-inactivated calf serum). Cells were washed three times with cold HBSS++, 3% HICS buffer. Cells were incubated in allophycocyanin-conjugated AffiniPure F(ab′)2 fragment goat anti-human IgG, Fc fragment secondary antibody (Jackson ImmunoResearch Laboratories, Inc., West Grove, Pa.) at 10 μg/mL for 30 minutes on ice in the dark. Cells were washed once with cold HBSS++/3% HICS buffer. Cells were resuspended in HBSS-++/3% HICS, 25 mM HEPES, 1 mM MgCl2 and 25 μg/ml DNaseI. 7-AAD (7-Amino-Actinomycin D) was added for exclusion of nonviable cells. Live cells were analyzed on a BD FACSCalibur flow cytometer (BD Biosciences, San Jose, Calif.). Mean fluorescence intensity (MFI) from channel FL-4 was calculated with FlowJo flow cytometry analysis software (Ashland, Oreg.).
# MDA-MB-468/hNotch3 = target: T2, MDA-MB-468/hNotch3 (Homo sapiens, UniProt Q9UM47); assay: In vitro cytotoxicity (MTS), MDA-MB-468/hNotch3; type: cell-based; conditions: MDAMB468/hNotch3; data not shown
# T2 construct: cell lines engineered to over-express full length human Notch3 protein: MDA-MB-468/hNotch3 and U2OS/hNotch3; expressed in transfected cells; host or cells: MDA-MB-468
# T2 sequence (Q9UM47 40-2321): as above
# Description: The effects of anti-Notch3 ADCs were assessed on 1) cell lines endogenously expressing Notch3 protein: HCC2429 (lung cancer), OVCAR3 (ovarian cancer) and MDA-MB-468 (breast cancer), 2) cell lines engineered to over-express full length human Notch3 protein: MDA-MB-468/hNotch3 and U2OS/hNotch3, and 3) a negative control cell line (SW900) using an MTS cellular viability indicator (Promega, Madison, Wis.). These cell lines were cultured with increasing concentrations of anti-Notch3 ADCs comprising rat-human chimeric anti-Notch3 antibodies, ch28 and ch75, and humanized anti-Notch3 antibodies, hu28 and hu75, conjugated to various linker-payload combinations of the present invention. As a specificity control for the anti-Notch3-ADCs, non-targeted control-ADCs (huNeg8.8-ADCs or ch2H6-ADCs) were also tested on the same cell lines. After four days, viability of each culture was assessed. IC50 values were calculated by logistic non-linear regression, model #203 with XL fit v4.2 (IDBS, Guildford, Surry, UK) and presented as ng Ab/mL. The drug antibody ratio (DAR) is also provided.
molecule,measurement,setting,value
B1,detection of S1- and S2-cleaved Notch3 C-terminal fragments,[1],both S1- and S2-cleaved Notch3 C-terminal fragments were detected
same,MFI,OVCAR3,116
same,effect of unconjugated antibody on viability,MDA-MB-468/hNotch3,did not affect the viability
